Data reported in EP4813396A2 (Amphivena Therapeutics, Inc., dated 2026).

Key:
human CD3 on T cells [1] = target: T1, human CD3 on T cells (human, UniProt P07766 23-207); experiment: flow cytometry, human T-cells (as headed in Table 10)
T1 construct: whole, on cells; also called hu CD3; CD3 on Jurkat cells

human CD33 on cells [2] = target: T2, human CD33 on cells (human, UniProt P20138 18-364); experiment: flow cytometry, titration on U-937 cells
T2 construct: whole, on cells; also called huCD33
T2 sequence (P20138 18-364): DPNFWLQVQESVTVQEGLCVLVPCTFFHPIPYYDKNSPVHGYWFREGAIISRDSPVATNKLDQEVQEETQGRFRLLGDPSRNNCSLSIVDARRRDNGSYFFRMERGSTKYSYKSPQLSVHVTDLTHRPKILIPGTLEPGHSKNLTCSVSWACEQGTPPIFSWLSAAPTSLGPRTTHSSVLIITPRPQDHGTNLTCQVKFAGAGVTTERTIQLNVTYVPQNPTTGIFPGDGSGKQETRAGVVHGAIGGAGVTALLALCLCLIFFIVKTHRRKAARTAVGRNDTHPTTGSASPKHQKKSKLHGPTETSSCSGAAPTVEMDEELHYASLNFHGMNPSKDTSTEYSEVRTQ

human CD33 on cells [3] = target: T2, human CD33 on cells; experiment: flow cytometry, titration on KG-1 cells
human CD33 on cells [4] = target: T2, human CD33 on cells; experiment: cell-based or functional assay
human CD33 on cells [5] = target: T2, human CD33 on cells; experiment: flow cytometry, HL-60 cells
human CD3 on T cells [6] = target: T1, human CD3 on T cells; experiment: cell-based or functional assay
human CD33 on cells [7] = target: T2, human CD33 on cells; experiment: flow cytometry, titration on HL-60 cells
[8] = target: cynomolgus CD33 on CHO cells (cynomolgus monkey); experiment: flow cytometry; KD on CHO-cynomolgus CD33 cells divided by KD on CHO-human CD33 cells
human CD3 on T cells [9] = target: T1, human CD3 on T cells; experiment: flow cytometry, titration on human CD3+ T cells (Jurkat per paragraph 124/paragraph 125)

T1 sequence (P07766 23-207): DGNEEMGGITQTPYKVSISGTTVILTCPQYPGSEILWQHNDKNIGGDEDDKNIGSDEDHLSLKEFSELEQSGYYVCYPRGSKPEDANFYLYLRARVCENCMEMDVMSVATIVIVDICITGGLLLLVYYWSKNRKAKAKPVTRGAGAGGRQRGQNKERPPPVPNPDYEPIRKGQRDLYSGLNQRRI

B1: CD33/CD3 tandem diabody 10 (bispecific antibody)
chain: DIQMTQSPSSLSASVGDRVTITCRSSTGAVTTSNYANWVQQKPGKAPKGLIGGTNKRAPGVPSRFSGSLIGDKATLTISSLQPEDFATYYCALWYSNLWVFGQGTKVEIKGGSGGSQVQLVQSGAEVKKPGASVKVSCKASGYTFTSYDINWVRQAPGQGLEWMGWMNPNSGNTGFAQKFQGRVTMTRDTSTSTVYMELSSLRSEDTAVYYCARDRANTDYSFGMDVWGQGTLVTVSSGGSGQSVLTQPPSASGTPGQRVTISCSGSRSNIGSNTVNWYQQLPGTAPKLLIYGNNQRPSGVPDRFSGSKSGTSASLAISGLQSEDEADYYCATWDDSLIGWVFGGGTKLTVLGGSGGSEVQLVESGGGLVQPGGSLRLSCAASGFTFSTYAMNWVRQAPGKGLEWVGRIRSKYNNYATYYADSVKDRFTISRDDSKNSLYLQMNSLKTEDTAVYYCARHGNFGNSYVSWFAYWGQGTLVTVSSAAAGSHHHHHH
notes: Non-covalent homodimer; domain order 1; also called TandAb 10
Binder B1 has a Kd (human CD3 on T cells [1]) of 1.9 nM, a Kd (human CD33 on cells [2]) of 1.7 nM and a Kd (human CD33 on cells [3]) of 1 nM. The “EC50 on HL-60 [pM] (cytotoxicity)” value (human CD33 on cells [4]) was 7 pM, the Kd (human CD33 on cells [5]) was 0.5 nM and the “CD25 Induction EC50 (pM)” value (human CD3 on T cells [6]) was 10 pM. For the same binder, the “CD69 Induction EC50 (pM)” value (human CD3 on T cells [6]) was 6 pM, the “T cell Proliferation in PBMC EC50 (pM)” value (human CD3 on T cells [6]) was 6 pM and the Kd (human CD33 on cells [7]) was 0.5 nM. The KD ratio cynoCD33/ huCD33 [8] was 0.8 and the Kd (human CD3 on T cells [9]) was 1.9 nM.

B2: CD33/CD3 tandem diabody 01 (bispecific antibody)
chain: DIQMTQSPSSLSASVGDRVTITCRSSTGAVTTSNYANWVQQKPGKAPKGLIGGTNKRAPGVPARFSGSGSGTDFTLTISSLQPEDFATYYCALWYSNLWVFGQGTKVEIKGGSGGSQVQLVQSGAEVKKPGASVKVSCKASGYTFTSYDINWVRQAPGQGLEWMGWMNPNSGNTGFAQKFQGRVTMTRDTSTSTVYMELSSLRSEDTAVYYCARDRANTDFSYGMDVWGQGTLVTVSSGGSGQSVLTQPPSASGTPGQRVTISCSGSRSNIGSNTVNWYQQLPGTAPKLLIYGNNQRPSGVPDRFSGSKSGSSASLAISGLQSEDEADYYCATWDDSLIGWVFGGGTKLTVLGGSGGSEVQLVESGGGLVQPGGSLRLSCAASGFTFSTYAMNWVRQAPGKGLEWVGRIRSKYNNYATYYADSVKDRFTISRDDSKNSLYLQMNSLKTEDTAVYYCARHGNFGNSYVSWFAYWGQGTLVTVSSAAAGSHHHHHH
notes: Non-covalent homodimer; domain order 1 VL(CD3)-L1-VH(CD33)-L2-VL(CD33)-L3-VH(CD3); also called TandAb 01; tandem diabody 1
In the case of B2, the Kd (human CD3 on T cells [1]) is reported as 94.2 nM, the Kd (human CD33 on cells [2]) is reported as 7.1 nM and the Kd (human CD33 on cells [3]) is reported as 0.9 nM. The “EC50 on HL-60 [pM] (cytotoxicity)” value (human CD33 on cells [4]) was 1.9 pM, the Kd (human CD33 on cells [5]) was 0.6 nM and the “CD25 Induction EC50 (pM)” value (human CD3 on T cells [6]) was 92 pM. The “CD69 Induction EC50 (pM)” value (human CD3 on T cells [6]) was 91 pM, the “T cell Proliferation in PBMC EC50 (pM)” value (human CD3 on T cells [6]) was 89 pM and the Kd (human CD33 on cells [7]) was 0.6 nM. For the same binder, the KD ratio cynoCD33/ huCD33 [8] was 0.7 and the Kd (human CD3 on T cells [9]) was 94.2 nM.

B3: CD33/CD3 tandem diabody 02 (bispecific antibody)
chain: DIQMTQSPSSLSASVGDRVTITCRSSTGAVTTSNYANWVQQKPGKAPKGLIGGTNKRAPGVPARFSGSGSGTDFTLTISSLQPEDFATYYCALWYSNLWVFGQGTKVEIKGGSGGSQVQLVQSGAEVKKPGASVKVSCKASGYTFTSYDINWVRQAPGQGLEWMGWMNPNSGNTGFAQKFQGRVTMTRDTSTSTVYMELSSLRSEDTAVYYCARDRAVTDYYYGMDVWGQGTLVTVSSGGSGQSVLTQPPSASGTPGQRVTISCSGSRSNIGSNTVNWYQQLPGTAPKLLIYGNNQRPSGVPDRFSGSKSGTSASLAISGLQSEDEADYYCATWDDSLIGWVFGGGTKLTVLGGSGGSEVQLVESGGGLVQPGGSLRLSCAASGFTFSTYAMNWVRQAPGKGLEWVGRIRSKYNNYATYYADSVKDRFTISRDDSKNSLYLQMNSLKTEDTAVYYCARHGNFGNSYVSWFAYWGQGTLVTVSSAAAGSHHHHHH
notes: Non-covalent homodimer; domain order 1; also called TandAb 02; tandem diabody 2
With B3 the Kd (human CD3 on T cells [1]) was 69.8 nM, the Kd (human CD33 on cells [2]) was 0.9 nM and the Kd (human CD33 on cells [3]) was 0.3 nM. The “EC50 on HL-60 [pM] (cytotoxicity)” value (human CD33 on cells [4]) was 0.5 pM, the Kd (human CD33 on cells [5]) was 0.2 nM and the “CD25 Induction EC50 (pM)” value (human CD3 on T cells [6]) was 42 pM. For the same binder, the “CD69 Induction EC50 (pM)” value (human CD3 on T cells [6]) was 27 pM, the “T cell Proliferation in PBMC EC50 (pM)” value (human CD3 on T cells [6]) was 4 pM and the Kd (human CD33 on cells [7]) was 0.2 nM. It also gave a KD ratio cynoCD33/ huCD33 [8] of 1.1 and a Kd (human CD3 on T cells [9]) of 69.8 nM.

B4: CD33/CD3 tandem diabody 03 (bispecific antibody)
chain: DIQMTQSPSSLSASVGDRVTITCRSSTGAVTTSNYANWVQQKPGKAPKGLIGGTNKRAPGVPARFSGSGSGTDFTLTISSLQPEDFATYYCALWYSNLWVFGQGTKVEIKGGSGGSQVQLVQSGAEVKKPGASVKVSCKASGYTFTSYDINWVRQAPGQGLEWMGWMNPNSGNTGFAQKFQGRVTMTRDTSTSTVYMELSSLRSEDTAVYYCARDRANTDYSFGMDVWGQGTLVTVSSGGSGQSVLTQPPSASGTPGQRVTISCSGSRSNIGSNTVNWYQQLPGTAPKLLIYGNNQRPSGVPDRFSGSKSGTSASLAISGLQSEDEADYYCATWDDSLIGWVFGGGTKLTVLGGSGGSEVQLVESGGGLVQPGGSLRLSCAASGFTFSTYAMNWVRQAPGKGLEWVGRIRSKYNNYATYYADSVKDRFTISRDDSKNSLYLQMNSLKTEDTAVYYCARHGNFGNSYVSWFAYWGQGTLVTVSSAAAGSHHHHHH
notes: Non-covalent homodimer; domain order 1; also called TandAb 03; tandem diabody 3
B4 showed a Kd (human CD3 on T cells [1]) of 81.9 nM, a Kd (human CD33 on cells [2]) of 8.9 nM and a Kd (human CD33 on cells [3]) of 1.8 nM. For the same binder, the “EC50 on HL-60 [pM] (cytotoxicity)” value (human CD33 on cells [4]) was 3.6 pM, the Kd (human CD33 on cells [5]) was 1.1 nM and the “CD25 Induction EC50 (pM)” value (human CD3 on T cells [6]) was 117 pM. The “CD69 Induction EC50 (pM)” value (human CD3 on T cells [6]) was 87 pM, the “T cell Proliferation in PBMC EC50 (pM)” value (human CD3 on T cells [6]) was 63 pM and the Kd (human CD33 on cells [7]) was 1.1 nM. For the same binder, the KD ratio cynoCD33/ huCD33 [8] was 0.6 and the Kd (human CD3 on T cells [9]) was 81.9 nM.

B5: CD33/CD3 tandem diabody 08 (bispecific antibody)
chain: QSVLTQPPSASGTPGQRVTISCSGSRSNIGSNTVNWYQQLPGTAPKLLIYGNNQRPSGVPDRFSGSKSGSSASLAISGLQSEDEADYYCATWDDSLIGWVFGGGTKLTVLGGSGGSEVQLVESGGGLVQPGGSLRLSCAASGFTFSTYAMNWVRQAPGKGLEWVGRIRSKYNNYATYYADSVKDRFTISRDDSKNSLYLQMNSLKTEDTAVYYCARHGNFGNSYVSYFAYWGQGTLVTVSSGGSGGSDIQMTQSPSSLSASVGDRVTITCRSSTGAVTTSNYANWVQQKPGKAPKALIGGTNKRAPGVPSRFSGSLIGDKATLTISSLQPEDFATYYCALWYSNLWVFGQGTKVEIKGGSGGSQVQLVQSGAEVKKPGASVKVSCKASGYTFTSYDINWVRQAPGQGLEWMGWMNPNSGNTGFAQKFQGRVTMTRDTSTSTVYMELSSLRSEDTAVYYCARDRANTDFSYGMDVWGQGTLVTVSSAAAGSHHHHHH
notes: Non-covalent homodimer; domain order 3 VL(CD33)-L1-VH(CD3)-L2-VL(CD3)-L3-VH(CD33); also called TandAb 08; tandem diabody 8
B5 was tested, and the Kd (human CD33 on cells [2]) was 1.8 nM, the Kd (human CD33 on cells [3]) was 0.5 nM and the “EC50 on HL-60 [pM] (cytotoxicity)” value (human CD33 on cells [4]) was 1.8 pM. For the same binder, the Kd (human CD33 on cells [7]) was 0.3 nM, the KD ratio cynoCD33/ huCD33 [8] was 0.6 and the Kd (human CD3 on T cells [9]) was 2.4 nM.

B6: CD33/CD3 tandem diabody 18 (bispecific antibody)
chain: EVQLVESGGGLVQPGGSLRLSCAASGFTFSTYAMNWVRQAPGKGLEWVGRIRSKYNNYATYYADSVKDRFTISRDDSKNSLYLQMNSLKTEDTAVYYCARHGNFGNSYVSYFAYWGQGTLVTVSSGGSGGSQSVLTQPPSVSGAPGQRVTISCTGSSSNIGAGYDVHWYQQLPGTAPKLLIYGNSNRPSGVPDRFSGSKSGTSASLAITGLQAEDEADYYCQSYDSSLSDVVFGGGTKLTVLGGSGQVQLVQSGAEVKKPGESLKISCKGSGYSFTSYWIGWVRQMPGKGLEWMGIIYPGDSDTRYSPSFQGQVTISADKSISTAYLQWSSLKASDTAMYYCARHKRGSDAFDIWGQGTTVTVSSGGSGGSDIQMTQSPSSLSASVGDRVTITCRSSTGAVTTSNYANWVQQKPGKAPKALIGGTNKRAPGVPSRFSGSLIGDKATLTISSLQPEDFATYYCALWYSNLWVFGQGTKVEIKAAAGSHHHHHH
notes: Non-covalent homodimer; domain order 2 VH(CD3)-L1-VL(CD33)-L2-VH(CD33)-L3-VL(CD3); also called TandAb 18
In the case of B6, the Kd (human CD33 on cells [2]) is reported as 15.1 nM, the Kd (human CD33 on cells [3]) is reported as 16.3 nM and the “EC50 on HL-60 [pM] (cytotoxicity)” value (human CD33 on cells [4]) is reported as 6.3 pM. The Kd (human CD33 on cells [7]) was 3.4 nM, the KD ratio cynoCD33/ huCD33 [8] was 3.1 and the Kd (human CD3 on T cells [9]) was 1.9 nM.
